According to patent US20230174609A1, “EXTENDED TIME ACTION ACYLATED INSULIN COMPOUNDS” (Eli Lilly and Company, priority 2020, published 2023):

Key:
[1] = molecular target: human insulin receptor subtype A (hIR-A) (human) (UniProt P06213); assay: cell-based or functional assay
[2] = molecular target: human insulin receptor subtype B (hIR-B) containing a C-terminal C9 tag (human) (UniProt P06213); assay: cell-based or functional assay
[3] = molecular target: human insulin receptor subtype B (hIR-B) containing a C-terminal C9 tag (human) (UniProt P06213); assay: SPA competitive radioligand binding, hIR-B membranes, 0.1% BSA
[4] = molecular target: human insulin receptor subtype B (hIR-B) containing a C-terminal C9 tag (human) (UniProt P06213); assay: SPA competitive radioligand binding, hIR-B membranes, 0.1% HSA
[5] = molecular target: human insulin receptor subtype B (hIR-B) containing a C-terminal C9 tag (human) (UniProt P06213); assay: SPA competitive radioligand binding, hIR-B membranes, 0.001% NP-40

Substance	receptor tyrosine auto-phosphorylation in HEK293 cells, ELISA, EC50, 0.1% BSA [1]	receptor tyrosine auto-phosphorylation in HEK293 cells, ELISA, EC50, 0.1% Casein [1]	receptor tyrosine auto-phosphorylation in HEK293 cells, ELISA, EC50, 0.1% BSA [2]	receptor tyrosine auto-phosphorylation in HEK293 cells, ELISA, EC50, 0.1% Casein [2]	Ki [3]	Ki [4]	Ki [5]
Example 3 (A14E, B16H, B25H, desB30 human insulin acylated at Lys B29 with HO2C-(CH2)18-CO-γGlu-γGlu-γGlu-εLys-Gly-) (ligand)	3180 nM	627 nM	1220 nM	183 nM			
Example 1 (A14E, B16H, B25H, desB30 human insulin acylated at Lys B29 with HO2C-(CH2)18-CO-γGlu-γGlu-γGlu-Lys-Gly-) (ligand)	2550 nM	588 nM	1560 nM				
insulin-like growth factor 1 (IGF-1) (from UniProt P05019 49-118) (ligand)			771 nM	577 nM	67.3 nM	54.3 nM	86.1 nM
Example 2 (A14E, B16H, B25H, desB30 human insulin acylated at Lys B29 with HO2C-(CH2)18-CO-γGlu-γGlu-γGlu-Lys-(2-[2-(2-aminoethoxy)ethoxy]acetic acid)-) (ligand)	3040 nM	478 nM	1790 nM				
